The series has as its target NGAL (neutrophil gelatinase-associated lipocalin) (UniProt P80188 24-198, C107S). Put plainly: dipstick lateral-flow sandwich assay.

NGAL (neutrophil gelatinase-associated lipocalin), sequence (P80188 24-198 C107S): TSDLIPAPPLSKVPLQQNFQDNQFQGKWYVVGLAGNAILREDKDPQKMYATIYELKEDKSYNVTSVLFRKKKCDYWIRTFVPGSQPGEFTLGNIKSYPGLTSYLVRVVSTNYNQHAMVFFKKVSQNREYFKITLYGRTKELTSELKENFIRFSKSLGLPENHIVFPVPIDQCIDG

ATGGCGGAGCTGGATAGTATAGTCGG (ssDNA) [NGAL truncated aptamer, biotinylated (26-base)]: the binding result was “binds”.

The values are drawn from paper PMC9601244.
